Measured values taken from US20240189392A1 (AMBRX, published 2024).
Where “and” joins values, the source holds several entries; their conditions need not be identical. Equal values may be shown once. Each block holds one binder with its values, some of them ahead of it. Positions of bridges follow the written chain, without caps; N, C: chain ends. Non-standard residues stand in square brackets, D forms with d. Chains are numbered I, II in the order given. No end group written: not given here. PEG20K = 20 kDa polyethylene glycol, linked to pAF (e.g. via oxime linkage); Phe(4-Ac) = CC(=O)c1ccc(C[C@H](N)C(=O)O)cc1

Key:
Assay in all cases: cell-based or functional assay
human RXFP1 [1] = target: T1, human RXFP1 (human, UniProt Q9HBX9 1-757)
T1 sequence (looked up): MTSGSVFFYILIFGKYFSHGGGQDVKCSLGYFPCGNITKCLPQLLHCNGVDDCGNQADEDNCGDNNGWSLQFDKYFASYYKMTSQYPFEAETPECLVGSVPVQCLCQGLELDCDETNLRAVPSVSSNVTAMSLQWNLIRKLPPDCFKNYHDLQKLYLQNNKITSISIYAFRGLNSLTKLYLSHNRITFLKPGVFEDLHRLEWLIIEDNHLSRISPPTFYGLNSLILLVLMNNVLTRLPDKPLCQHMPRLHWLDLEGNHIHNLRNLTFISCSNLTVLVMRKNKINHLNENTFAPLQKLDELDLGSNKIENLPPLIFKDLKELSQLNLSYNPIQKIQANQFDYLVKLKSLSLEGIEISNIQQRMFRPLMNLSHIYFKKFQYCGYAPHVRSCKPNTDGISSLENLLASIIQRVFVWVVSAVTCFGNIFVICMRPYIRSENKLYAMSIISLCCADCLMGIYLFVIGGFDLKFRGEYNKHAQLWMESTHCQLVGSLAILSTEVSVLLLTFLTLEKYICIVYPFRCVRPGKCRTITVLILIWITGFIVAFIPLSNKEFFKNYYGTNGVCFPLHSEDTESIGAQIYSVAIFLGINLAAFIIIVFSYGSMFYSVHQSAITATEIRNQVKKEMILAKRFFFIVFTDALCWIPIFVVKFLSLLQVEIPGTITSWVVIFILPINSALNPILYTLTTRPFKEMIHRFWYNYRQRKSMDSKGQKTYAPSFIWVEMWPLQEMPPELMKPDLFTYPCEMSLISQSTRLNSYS

human RXFP1 [2] = target: T1, human RXFP1; remark: listed apart in the source
human RXFP1 [3] = target: T1, human RXFP1; remark: listed apart in the source
human RXFP3 = target: T2, human RXFP3 (human, UniProt Q9NSD7 1-469)
T2 sequence (looked up): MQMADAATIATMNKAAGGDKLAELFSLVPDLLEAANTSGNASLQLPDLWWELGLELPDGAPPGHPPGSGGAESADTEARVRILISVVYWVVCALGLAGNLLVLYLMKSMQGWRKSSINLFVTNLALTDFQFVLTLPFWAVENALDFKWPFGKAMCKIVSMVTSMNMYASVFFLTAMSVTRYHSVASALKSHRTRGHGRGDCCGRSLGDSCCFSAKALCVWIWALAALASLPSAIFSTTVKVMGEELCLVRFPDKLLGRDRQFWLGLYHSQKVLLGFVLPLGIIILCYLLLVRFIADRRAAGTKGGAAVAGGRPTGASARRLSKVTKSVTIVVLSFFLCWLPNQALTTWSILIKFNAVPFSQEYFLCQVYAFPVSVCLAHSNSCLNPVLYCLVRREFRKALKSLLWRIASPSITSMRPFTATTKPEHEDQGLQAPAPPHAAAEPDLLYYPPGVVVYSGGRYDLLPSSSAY

human RXFP4 = human RXFP4 (human, UniProt Q8TDU9 1-374)
Sequence of human RXFP4 (Q8TDU9 whole entry): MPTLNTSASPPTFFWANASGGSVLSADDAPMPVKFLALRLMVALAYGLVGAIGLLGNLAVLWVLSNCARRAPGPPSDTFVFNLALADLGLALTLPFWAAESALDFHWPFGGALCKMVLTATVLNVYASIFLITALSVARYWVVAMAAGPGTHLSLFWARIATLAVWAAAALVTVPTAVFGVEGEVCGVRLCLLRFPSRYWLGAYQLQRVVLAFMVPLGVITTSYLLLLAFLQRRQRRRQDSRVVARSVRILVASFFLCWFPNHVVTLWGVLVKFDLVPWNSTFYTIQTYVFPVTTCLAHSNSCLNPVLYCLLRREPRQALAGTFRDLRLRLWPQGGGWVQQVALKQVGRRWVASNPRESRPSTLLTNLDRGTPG

cynomolgus monkey RXFP1 = target: T3, cynomolgus monkey RXFP1 (cynomolgus monkey, UniProt H9ERA2 1-757 (rhesus entry))
T3 sequence: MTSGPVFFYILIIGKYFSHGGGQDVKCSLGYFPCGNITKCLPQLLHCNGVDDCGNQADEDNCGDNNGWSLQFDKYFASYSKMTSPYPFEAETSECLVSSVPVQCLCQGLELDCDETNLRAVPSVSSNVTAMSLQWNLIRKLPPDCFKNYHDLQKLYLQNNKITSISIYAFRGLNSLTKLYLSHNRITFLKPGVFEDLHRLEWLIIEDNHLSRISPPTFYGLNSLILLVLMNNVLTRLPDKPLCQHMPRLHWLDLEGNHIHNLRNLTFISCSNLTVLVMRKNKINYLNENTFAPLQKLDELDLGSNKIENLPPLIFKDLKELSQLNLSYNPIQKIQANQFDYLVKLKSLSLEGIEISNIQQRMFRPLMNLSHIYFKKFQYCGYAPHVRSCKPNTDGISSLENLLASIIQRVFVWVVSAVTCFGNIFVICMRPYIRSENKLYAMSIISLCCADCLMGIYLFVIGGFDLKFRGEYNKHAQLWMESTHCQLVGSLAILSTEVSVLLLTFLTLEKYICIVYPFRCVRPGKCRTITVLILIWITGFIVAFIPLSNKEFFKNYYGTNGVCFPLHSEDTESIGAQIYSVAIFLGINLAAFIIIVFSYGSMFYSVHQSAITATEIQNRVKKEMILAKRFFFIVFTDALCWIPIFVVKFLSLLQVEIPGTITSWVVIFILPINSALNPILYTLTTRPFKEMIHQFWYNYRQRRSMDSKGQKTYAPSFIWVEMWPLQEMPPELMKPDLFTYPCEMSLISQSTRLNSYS

dog RXFP1 = dog RXFP1 (dog)
rat RXFP1 = target: T4, rat RXFP1 (rat, UniProt Q6R6I6 1-758)
T4 sequence (looked up): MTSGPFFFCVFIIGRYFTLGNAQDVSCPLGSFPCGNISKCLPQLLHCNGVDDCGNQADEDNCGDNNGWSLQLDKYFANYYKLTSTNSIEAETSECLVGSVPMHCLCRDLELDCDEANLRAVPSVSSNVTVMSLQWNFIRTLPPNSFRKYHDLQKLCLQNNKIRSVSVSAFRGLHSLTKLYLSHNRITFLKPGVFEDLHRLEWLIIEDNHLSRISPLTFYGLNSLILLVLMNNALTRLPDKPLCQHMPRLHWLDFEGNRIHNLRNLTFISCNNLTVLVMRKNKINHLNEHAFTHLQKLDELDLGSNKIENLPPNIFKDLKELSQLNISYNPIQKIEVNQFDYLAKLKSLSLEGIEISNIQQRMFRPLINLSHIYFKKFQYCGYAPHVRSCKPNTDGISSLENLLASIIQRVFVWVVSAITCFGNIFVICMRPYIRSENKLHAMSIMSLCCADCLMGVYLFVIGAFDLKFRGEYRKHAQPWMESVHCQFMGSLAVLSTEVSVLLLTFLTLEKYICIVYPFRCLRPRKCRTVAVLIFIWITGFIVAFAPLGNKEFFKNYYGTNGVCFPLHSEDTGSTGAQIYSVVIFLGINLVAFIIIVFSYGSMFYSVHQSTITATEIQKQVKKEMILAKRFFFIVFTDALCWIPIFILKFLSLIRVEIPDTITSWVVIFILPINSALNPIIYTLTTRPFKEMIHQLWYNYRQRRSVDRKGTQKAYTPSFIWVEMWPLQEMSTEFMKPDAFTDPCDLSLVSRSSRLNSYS

mouse RXFP1 = target: T5, mouse RXFP1 (mouse, UniProt Q6R6I7 1-758)
T5 sequence (looked up): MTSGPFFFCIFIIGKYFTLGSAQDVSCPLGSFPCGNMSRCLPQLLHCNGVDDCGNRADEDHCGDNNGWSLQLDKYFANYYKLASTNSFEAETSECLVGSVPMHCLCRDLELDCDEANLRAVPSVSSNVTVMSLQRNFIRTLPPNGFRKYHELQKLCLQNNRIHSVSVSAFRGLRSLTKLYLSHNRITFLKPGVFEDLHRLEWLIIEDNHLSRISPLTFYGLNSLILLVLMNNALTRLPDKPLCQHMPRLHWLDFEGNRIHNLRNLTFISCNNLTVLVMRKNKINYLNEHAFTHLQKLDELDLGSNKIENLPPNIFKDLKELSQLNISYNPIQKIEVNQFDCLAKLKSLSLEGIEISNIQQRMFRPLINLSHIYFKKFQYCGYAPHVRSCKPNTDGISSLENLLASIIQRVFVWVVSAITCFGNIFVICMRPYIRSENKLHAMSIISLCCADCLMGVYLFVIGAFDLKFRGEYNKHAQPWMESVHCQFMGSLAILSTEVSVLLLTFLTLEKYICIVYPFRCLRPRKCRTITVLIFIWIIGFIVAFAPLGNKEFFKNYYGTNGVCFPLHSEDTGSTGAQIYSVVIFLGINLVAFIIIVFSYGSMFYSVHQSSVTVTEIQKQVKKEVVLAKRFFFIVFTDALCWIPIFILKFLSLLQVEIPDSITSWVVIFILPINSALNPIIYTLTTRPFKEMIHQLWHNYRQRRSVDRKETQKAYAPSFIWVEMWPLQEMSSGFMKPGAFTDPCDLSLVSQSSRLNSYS

B4: RLX-A-AA5-20KPEG (ligand)
chain 1: QLYSXLANKCCHVGCTKRSLARFC
chain 2: ASWMEEVIKLCGRELVRAQIAICGMSTWS
modifications: not fully specified; para-acetylphenylalanine (pAF) at position 5 of the A chain, 20K PEGylated
In vitro Activity Fold Loss (human RXFP1 [1]): 12 fold
Functional Assay Raw EC50 Values [ng/mL]; cAMP increase in THP-1 cells, 11/5/2010 (human RXFP1 [2]): 41 ng/mL

B6: RLX-A-AR18-20KPEG (ligand)
chain 1: QLYSALANKCCHVGCTKXSLARFC
chain 2: ASWMEEVIKLCGRELVRAQIAICGMSTWS
modifications: not fully specified; para-acetylphenylalanine (pAF) at position 18 of the A chain, 20K PEGylated
In vitro Activity Fold Loss (human RXFP1 [1]): 21 fold
Functional Assay Raw EC50 Values [ng/mL]; cAMP increase in THP-1 cells, 11/5/2010 (human RXFP1 [2]): 68 ng/mL

B9: RLX-A-AV13-20KPEG (ligand)
chain 1: QLYSALANKCCHXGCTKRSLARFC
chain 2: ASWMEEVIKLCGRELVRAQIAICGMSTWS
modifications: not fully specified; para-acetylphenylalanine (pAF) at position 13 of the A chain, 20K PEGylated
In vitro Activity Fold Loss (human RXFP1 [1]): 17 fold
Functional Assay Raw EC50 Values [ng/mL]; cAMP increase in THP-1 cells, 11/5/2010 (human RXFP1 [2]): 56 ng/mL

B10: RLX-A-BE5-20KPEG (ligand)
chain 1: QLYSALANKCCHVGCTKRSLARFC
chain 2: ASWM[Phe(4-Ac)](PEG20K)EVIKLCGRELVRAQIAICGMSTWS
modifications: not fully specified (bridges); ends and bridges not checked
In vitro Activity Fold Loss (human RXFP1 [1]): 17 fold
Functional Assay Raw EC50 Values [ng/mL]; cAMP increase in THP-1 cells, 11/5/2010 (human RXFP1 [2]): 45 ng/mL

B11: RLX-A-BA18-20KPEG (ligand)
chain 1: QLYSALANKCCHVGCTKRSLARFC
chain 2: ASWMEEVIKLCGRELVR[Phe(4-Ac)](PEG20K)QIAICGMSTWS
modifications: not fully specified (bridges); ends and bridges not checked
In vitro Activity Fold Loss (human RXFP1 [1]): 48 fold
Functional Assay Raw EC50 Values [ng/mL]; cAMP increase in THP-1 cells, 11/4/2010 (human RXFP1 [2]): 172 ng/mL

Next, values leading:

In vitro Activity Fold Loss (human RXFP1 [1]): 22 fold
Functional Assay Raw EC50 Values [ng/mL]; cAMP increase in THP-1 cells, 11/5/2010 (human RXFP1 [2]): 58 ng/mL
B1: RLX-D-BE5-20KPEG (ligand)
chain 1: QLYSALANKCCHVGCTKRSLARFC
chain 2: DSWM[Phe(4-Ac)](PEG20K)EVIKLCGRELVRAQIAICGMSTWS
modifications: not fully specified (bridges); ends and bridges not checked

In vitro Activity Fold Loss (human RXFP1 [1]): 48 fold
Functional Assay Raw EC50 Values [ng/mL]; cAMP increase in THP-1 cells, 11/4/2010 (human RXFP1 [2]): 172 ng/mL
B2: RLX-A-BW28-20KPEG (ligand)
chain 1: QLYSALANKCCHVGCTKRSLARFC
chain 2: ASWMEEVIKLCGRELVRAQIAICGMST[Phe(4-Ac)](PEG20K)S
modifications: not fully specified (bridges); ends and bridges not checked

Functional Assay Raw EC50 Values [ng/mL]; cAMP increase in THP-1 cells, 11/4/2010 (human RXFP1 [2]): 1.5 ng/mL
Functional Assay Raw EC50 Values [ng/mL]; cAMP increase in THP-1 cells, 11/5/2010 (human RXFP1 [2]): 1.5 ng/mL and 1 ng/mL
cAMP Assay EC50 (nM), THP-1 cells (human RXFP1 [3]): 0.3 nM
cAMP Assay EC50 (nM), hRXFP1/CHO-K1 cells (human RXFP1 [3]): 0.1 nM
cAMP Assay EC50 (nM), inhibition of forskolin-induced cAMP, human RXFP3/CHO-K1 cells (human RXFP3): > 3000 nM
cAMP Assay EC50 (nM), inhibition of forskolin-induced cAMP, human RXFP4/CHO-K1 cells (human RXFP4): > 3000 nM
cAMP Assay EC50 (nM), cyno RXFP1/CHO-K1 cells (cynomolgus monkey RXFP1): 0.06 nM
cAMP Assay EC50 (nM), dog RXFP1/CHO-K1 cells (dog RXFP1): 0.56 nM
cAMP Assay EC50 (nM), rat RXFP1/CHO-K1 cells (rat RXFP1): 0.03 nM
cAMP Assay EC50 (nM), mouse RXFP1/CHO-K1 cells (mouse RXFP1): 0.1 nM
B3: wild-type relaxin (human relaxin 2) (ligand)
chain 1: QLYSALANKCCHVGCTKRSLARFC
chain 2: DSWMEEVIKLCGRELVRAQIAICGMSTWS
modifications: disulfide I:10-I:15, I:11-II:11, I:24-II:23

Functional Assay Raw EC50 Values [ng/mL]; cAMP increase in THP-1 cells, 11/4/2010 (human RXFP1 [2]): 3.6 ng/mL
Functional Assay Raw EC50 Values [ng/mL]; cAMP increase in THP-1 cells, 11/5/2010 (human RXFP1 [2]): 3.3 ng/mL and 2.6 ng/mL
B5: RLX-A-WT (human relaxin 2 with alanine at the first position of the B chain) (ligand)
chain 1: QLYSALANKCCHVGCTKRSLARFC
chain 2: ASWMEEVIKLCGRELVRAQIAICGMSTWS
modifications: not fully specified (bridges); ends and bridges not checked

In vitro Activity Fold Loss (human RXFP1 [1]): 17 fold
Functional Assay Raw EC50 Values [ng/mL]; cAMP increase in THP-1 cells, 11/5/2010 (human RXFP1 [2]): 43 ng/mL
B7: RLX-D-AL2-20KPEG (ligand)
chain 1: QXYSALANKCCHVGCTKRSLARFC
chain 2: DSWMEEVIKLCGRELVRAQIAICGMSTWS
modifications: not fully specified; para-acetylphenylalanine (pAF) at position 2 of the A chain, 20K PEGylated

In vitro Activity Fold Loss (human RXFP1 [1]): 15 fold
Functional Assay Raw EC50 Values [ng/mL]; cAMP increase in THP-1 cells, 11/4/2010 (human RXFP1 [2]): 54 ng/mL
B8: RLX-A-BV7-20KPEG (ligand)
chain 1: QLYSALANKCCHVGCTKRSLARFC
chain 2: ASWMEE[Phe(4-Ac)](PEG20K)IKLCGRELVRAQIAICGMSTWS
modifications: not fully specified (bridges); ends and bridges not checked
